{"source": "paper PMC3684052", "about": "(Molecular cell, 2013)", "binders": {"B1": {"name": "GST-KRIT1 (residues 170–198) A176D/P182D (domain or fragment, human, UniProt O00522 170-198, looked up)", "chain": "QSHFIPDLFRPSDLERIKTNVINPAYATE"}, "B2": {"name": "GST-integrin β1 fusion protein (residues 752 to 798), wild type (domain or fragment, UniProt P05556 752-798, looked up)", "chain": "KLLMIIHDRREFAKFEKEKMNAKWDTGENPIYKSAVTTVVNPKYEGK", "modifications": "also: GST fusion"}, "B3": {"name": "GST-KRIT1 (residues 170–198), wild type (domain or fragment, human, UniProt O00522 170-198, looked up)", "chain": "QSHFIPALFRPSPLERIKTNVINPAYATE"}, "B4": {"name": "GST-KRIT1 (residues 170–198) R179A/R185A (domain or fragment, human, UniProt O00522 170-198, looked up)", "chain": "QSHFIPALFAPSPLEAIKTNVINPAYATE"}, "B5": {"name": "GST-KRIT1 (residues 170–198) N192A/Y195A (domain or fragment, human, UniProt O00522 170-198, looked up)", "chain": "QSHFIPALFRPSPLERIKTNVIAPAAATE"}}, "experiment_in_all_cases": "pull-down", "key": {"[1]": {"molecular_target": "T1, His-ICAP1 (49–200), wild type (human, UniProt O14713 49-200)", "T1 sequence (looked up)": "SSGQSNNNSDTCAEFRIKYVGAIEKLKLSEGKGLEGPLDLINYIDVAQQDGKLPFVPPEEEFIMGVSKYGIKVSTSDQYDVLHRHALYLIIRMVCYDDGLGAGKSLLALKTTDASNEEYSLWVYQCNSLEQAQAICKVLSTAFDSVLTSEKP"}, "His-ICAP1 (49–200) I89R": {"molecular_target": "T2, His-ICAP1 (49–200) I89R (human, UniProt O14713 49-200, I89R)", "T2 sequence (looked up)": "T1 sequence (looked up) with I41R"}, "[2]": {"molecular_target": "T3, His-ICAP1 (49–200) D93A/Q96A (human, UniProt O14713 49-200, D93A | Q96A)", "T3 sequence (looked up)": "T1 sequence (looked up) with D45A, Q48A"}, "[3]": {"molecular_target": "T4, His-ICAP1 (49–200) L135A/I138A/I139A (human, UniProt O14713 49-200, L135A | I138A | I139A)", "T4 sequence (looked up)": "T1 sequence (looked up) with L87A, I90A, I91A"}, "His-ICAP1 (49–200) C184D": {"molecular_target": "T5, His-ICAP1 (49–200) C184D (human, UniProt O14713 49-200, C184D)", "T5 sequence (looked up)": "T1 sequence (looked up) with C136D"}}, "note": "Where a chain is given by its changes, count along the chain named. Numbers in names are those of the source. No end group written: not given here."}
{"binder": "B1", "values": [{"measurement": "binding result", "setting": "[1]", "result": "binds"}]}
{"binder": "B2", "values": [{"measurement": "binding result", "setting": "[1]", "result": "binds"}, {"measurement": "binding result", "setting": "His-ICAP1 (49–200) I89R", "result": "binds"}, {"measurement": "binding result", "setting": "[2]", "result": "binds"}]}
{"binder": "B3", "values": [{"measurement": "binding result", "setting": "[1]", "result": "binds"}, {"measurement": "binding result", "setting": "[3]", "result": "binds"}, {"measurement": "binding result", "setting": "His-ICAP1 (49–200) C184D", "result": "binds"}, {"measurement": "binding result", "setting": "His-ICAP1 (49–200) I89R", "result": "binds"}, {"measurement": "binding result", "setting": "[2]", "result": "binds"}]}
{"binder": "B4", "values": [{"measurement": "binding result", "setting": "[1]", "result": "binds"}]}
{"binder": "B5", "values": [{"measurement": "binding result", "setting": "[1]", "result": "binds"}]}
